Residue numbers refer to the chain shown, from its start. Like-named read-outs stand apart in the source and are kept apart here.
B1: CAN54G2 (antibody, V domains shown)
VH: QVQLQQSGTELVRPGTSVKISCKASGYDFTNFWLGWIKQRPGHGLEWIGDIYPGGDNTYYNEKFKGKVTLTADKSSNTAYMQFSSLTSEDSAVYFCFMILYTLDYWGQGTSVTVSS
VL: not shown
B2: CAN30G5 (antibody, V domains shown)
VH: EVQLVESGGGLVQPKGSLKLSCAASGFAFNSYAMHWVCQAPGKGLEWVARIRIKSGNYATSYAGSVTDRFTVSRDDSQNLFYLQMNNLKTEDTAMYYCVREWEGAMDYWGQGTSVTVSS
VL: DIVLTQSPLSLPVSLGDQASISCRSSQSLVHSNGNTYLHWYLQKPGQSPNLLIYKVSNRFSGVPDRFSGSGSGTDFTLKISRVEAEDLGVYFCSQSTHVPWTFGGGTKLEIK
B3: CAN30G2 (antibody, V domains shown)
VH: DVQLVESGGGLVQPGGSRKLSCTASGFTFSSFGMHWVRQAPEKGLEWVAYISSGSSKIYYADTVKGRFTISRDNPKNTLFLQMTSLRSEDTAMYYCARGWYEGAWFAYWGQGTLVTVSA
VL: DVLMTQTPLSLPVSLGDQASISCRSSQSIVHSNGDTYLEWYLQKPGQSPKLLIYKVSNRFSGVPDRFSGSGSGTDFTLRISRVEAEDLGVYYCFQGSHFPWTFGGGTKLEIK
B4: CAN30G3 (antibody, V domains shown)
VH: QVQLKESGPGLVAPSQSLSITCTVSGFSLTDYGITWIRQPPGKGLEWLGVIWGGGSAYYNLVLKSRLSISKDNSKSQVFLKMNSLQTDDTAMYYCAKHRTLITTAMDYWGQGISVTVSS
VL: B3 VL with S28N, D35N, P45S, R79K
B5: CAN30G4 (antibody, V domains shown)
VH: EVKLVESGGGLVKSGGSLKLSCAVSGFTFSTYAMSWVRQIPEKRLEWVATISNGGSYIYYSDSVKGRFTISRDNAKNTLYLQMSSLRSEDTAMYYCARHRESYRYDWFAYWGQGTLVTVSA
VL: B3 VL with S28N, N33D, D35N, V56F, R79K, F99V, W101P, G105A, I111L

Legend:
[1] = molecular target: Marburg Ravn GP pin peptide … (Marburg virus, Ravn strain); test: pin peptide ELISA, pin printed as D6 beside … (SEQ ID NO: 195), read at 1 hour
[2] = molecular target: Marburg Ravn GP pin peptide … (Marburg virus, Ravn strain); test: pin peptide ELISA, pin D4, supernatant diluted 1/5, read at 1 hour
[3] = molecular target: Marburg Ravn GP pin peptide … (Marburg virus, Ravn strain)
[4] = molecular target: Marburg Ravn GP pin peptide … (Marburg virus, Ravn strain); test: pin peptide ELISA, pin D5, supernatant diluted 1/5, read at 1 hour
[5] = molecular target: Marburg Ravn GP pin peptide … (Marburg virus, Ravn strain); test: pin peptide ELISA, pin D6, supernatant diluted 1/5, read at 1 hour

Binder | Absorbance (1 hour) [1] [absorbance] | Absorbance (1 hour) [2] [absorbance] | Absorbance (1 hour) [3] [absorbance] | Absorbance (1 hour) [4] [absorbance] | Absorbance (1 hour) [5] [absorbance]
B1 | 1.85 |  |  |  | 
B2 |  | 0.631 | > 3.9 |  | 
B3 |  | 0.848 |  | 0.373 | 
B4 |  |  |  | 1.84 | 1.12
B5 |  |  | > 3.9 | 1.97 | 

From US20170065702A1
